Measurements published in paper PMC12310653.

Target: cathepsin L
Experiment: enzyme inhibition kinetics (Morrison equation for tight-binding inhibition); active cathepsin L (6 nM) incubated with varying concentrations of Amblyostatin-1 in 50 mM sodium acetate pH 5.5 at 37°C for 10 min; substrate Z-Phe-Arg-AMC; fluorescence read at 30°C over 15 min; residual Vmax fitted

recombinant Amblyostatin-1 (natural protein)
Ki: 0.697 nM
